Source: patent US20160009812A1 (University of Texas, published 2016)

Columns and labels:
[1] = target: T1, cell-surface vimentin on mouse cancer cells (LM8) (mouse, UniProt P20152 2-466); test: immunofluorescence staining of mouse LM8 cells spiked into blood
T1 construct: whole, on cells; also called CSV
Method: FIG. 2B: Detection of single cell spiked into blood using fluorescence microscopy. Single LM8 cell was isolated using serial dilution and spot analysis and spiked into 1 ml of blood. After RBC lysis, mononucleated cell population was stained for 84-1 mAb and AlexaFluor-488 secondary antibody to detect CSV positive cells. […] FIG. 2C: Isolation of single cell from whole blood. Single cell spiked into whole blood was isolated using EasySep based 84-1 positive and CD45 negative selection. This single cell was observable on the culture dish 2 hr after incubation at 37° C. FIG. 2D: Micrographs of cells isolated from blood were costained using antibodies against CSV, CD45 and a nuclear stain DRAQ5. Scale indicates 10 μm. FIG. 2E: Enumeration of CSV positive CTCs from healthy, primary and metastatic patient blood specimens. Blood from the primary cancer patients was used to select threshold of detection (dashed line).
Based on the detection of CSV in a range of cancer cell lines of both epithelial and non-epithelial origin, the inventors hypothesized that it could serve as a biomarker to detect CTC. […] From micrographs it is evident that single cell is detectable in whole blood utilizing fluorescence microscopy (FIG. 2B). […] The inventors further evaluated the sensitivity and specificity of 84-1 antibody using HLM3 and LM7 cells that are positive for 84-1 staining (Table 5).

[2] = target: T2, cell-surface vimentin (CSV) on human cancer cells (human, UniProt P08670 2-466); test: screening on osteosarcoma cell lines with and without vimentin on the cell surface
T2 construct: whole, on cells; Endogenous vimentin on the surface of non-permeabilized cancer cells

[3] = target: T3, cell-surface vimentin on canine circulating tumor cells (canine, UniProt A0A8C0N8E3 2-466); test: isolation and confocal microscopy of CTC from canine blood
T3 construct: also called CSV

[4] = target: vimentin-derived peptides (10, 12 and 15 aa peptides on the peptide microarray); test: peptide microarray; 84-1 at 0.2 ug/mL compared with 12-1 at 1 ug/mL
[5] = target: T4, total (intracellular) vimentin of human cancer cells (human, UniProt P08670 2-466); test: confocal microscopy, intracellular staining
T4 construct: Endogenous protein in lysates or in permeabilized cells; also called total vimentin; cytoplasmic vimentin
T4 sequence (P08670 2-466 limits assumed): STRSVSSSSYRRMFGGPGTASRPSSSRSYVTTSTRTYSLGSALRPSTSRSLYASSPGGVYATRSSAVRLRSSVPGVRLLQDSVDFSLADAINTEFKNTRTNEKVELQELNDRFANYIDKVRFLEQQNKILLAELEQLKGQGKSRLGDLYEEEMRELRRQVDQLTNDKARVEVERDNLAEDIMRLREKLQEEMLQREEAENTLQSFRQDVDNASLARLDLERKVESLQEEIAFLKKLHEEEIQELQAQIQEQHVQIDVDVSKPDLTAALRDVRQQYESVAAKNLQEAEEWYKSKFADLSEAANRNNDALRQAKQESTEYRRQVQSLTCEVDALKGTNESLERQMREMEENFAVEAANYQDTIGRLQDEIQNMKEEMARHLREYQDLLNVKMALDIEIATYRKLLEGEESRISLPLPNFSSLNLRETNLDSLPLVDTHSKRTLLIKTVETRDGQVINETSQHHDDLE

T3 sequence (A0A8C0N8E3 2-466 limits assumed): as the sequence (P08670 2-466 limits assumed) above, with A20G, S26T, V59A, N200S, E238D, E250D, V257M, T316N, S411A counted along it
T2 sequence (P08670 2-466): as the sequence (P08670 2-466 limits assumed) above
T1 sequence (P20152 2-466): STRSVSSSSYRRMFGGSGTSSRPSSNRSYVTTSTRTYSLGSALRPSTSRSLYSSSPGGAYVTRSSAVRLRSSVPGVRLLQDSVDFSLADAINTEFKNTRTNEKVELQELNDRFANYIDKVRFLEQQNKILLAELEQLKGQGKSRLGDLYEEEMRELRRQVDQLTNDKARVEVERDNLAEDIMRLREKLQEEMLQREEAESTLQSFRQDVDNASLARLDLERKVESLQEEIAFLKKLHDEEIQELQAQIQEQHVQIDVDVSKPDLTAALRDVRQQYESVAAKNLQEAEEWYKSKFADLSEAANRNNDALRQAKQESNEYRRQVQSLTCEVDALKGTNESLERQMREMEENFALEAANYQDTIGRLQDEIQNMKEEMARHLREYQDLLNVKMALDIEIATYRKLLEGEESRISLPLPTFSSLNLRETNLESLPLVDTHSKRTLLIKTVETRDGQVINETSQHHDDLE

binding result [1]: binds
binding result [2]: binds
binding result [3]: binds
spot intensity relative to antibody 12-1 [4]: 2 fold
binding result [5]: binds
B1: 84-1 monoclonal antibody (antibody, V domains shown)
VH: QVQLKQSGPGLVQPSQSLSITCTVSGFSLTRYGVHWVRQSPGKGLEWLGVIWSGGSTDYNAAFISRLSFSKDNSKSQVFFKMNSLQANDTAIYYCARRSYYYAMDYWGQGTSVTVS
VL: DVLMTQTPLSLPVSLGDQASISCRSSQSIVHRIGNTYLEWYLQKPGQSPKLLIYKVSNRFSGVPDRFSGSGSGTDFTLKISRVEAEDLGVYYCFQGSHVPLTFGAGTKLEL
notes: Mouse monoclonal antibody from hybridoma 84-1, raised against rhVim with 6-His; It was detected with anti-mouse IgG; also called 84-1 mAb; 84-1 antibody
